Literature values as cited in patent publication US20170080049A1, “MEDICINE AGAINST GROWTH FAILURE INDUCED BY ADMINISTRATION OF STEROID” (DAIICHI SANKYO COMPANY, LIMITED, priority 2014, published 2017).
Positions of bridges follow the written chain, without caps; N, C: chain ends. No end group written: not given here.

Tests used:
NPR-B = target: T1, NPR-B (Homo sapiens, UniProt P20594); settings: Furuya et al. 1992; US 2010-305031; cited from earlier work
T1 sequence (P20594 23-1047): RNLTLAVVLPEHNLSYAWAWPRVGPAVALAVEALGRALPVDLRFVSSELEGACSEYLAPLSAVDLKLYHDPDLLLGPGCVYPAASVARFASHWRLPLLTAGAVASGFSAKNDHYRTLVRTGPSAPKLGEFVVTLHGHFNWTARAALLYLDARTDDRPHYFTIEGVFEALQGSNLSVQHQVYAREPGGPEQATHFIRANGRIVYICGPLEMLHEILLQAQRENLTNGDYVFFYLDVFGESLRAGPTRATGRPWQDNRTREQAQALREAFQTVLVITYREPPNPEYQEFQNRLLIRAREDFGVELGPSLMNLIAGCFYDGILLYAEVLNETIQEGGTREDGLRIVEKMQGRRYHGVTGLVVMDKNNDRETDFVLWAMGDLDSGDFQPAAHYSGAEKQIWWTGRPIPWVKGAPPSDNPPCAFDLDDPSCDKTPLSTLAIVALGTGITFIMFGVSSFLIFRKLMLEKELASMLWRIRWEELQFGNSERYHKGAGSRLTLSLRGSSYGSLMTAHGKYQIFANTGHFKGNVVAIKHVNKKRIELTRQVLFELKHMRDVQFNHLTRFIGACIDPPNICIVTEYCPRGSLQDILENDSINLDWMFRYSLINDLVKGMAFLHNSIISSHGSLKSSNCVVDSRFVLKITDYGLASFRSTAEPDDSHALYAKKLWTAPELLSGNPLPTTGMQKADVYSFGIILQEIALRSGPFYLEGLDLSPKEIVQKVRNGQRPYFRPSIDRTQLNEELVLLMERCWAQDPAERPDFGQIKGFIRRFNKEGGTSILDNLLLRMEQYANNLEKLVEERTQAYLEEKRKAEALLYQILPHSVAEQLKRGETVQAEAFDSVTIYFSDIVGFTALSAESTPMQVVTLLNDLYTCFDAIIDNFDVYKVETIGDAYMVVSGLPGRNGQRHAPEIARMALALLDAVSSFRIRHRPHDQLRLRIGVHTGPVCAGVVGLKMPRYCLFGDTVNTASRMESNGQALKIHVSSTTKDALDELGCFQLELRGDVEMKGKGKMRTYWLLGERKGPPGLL

normal mice = settings: continuous intravenous administration, normal mice (Non Patent Literature 9, 10); cited from earlier work

Substance | NPR-B agonist activity compared with hCNP-22 (in words) (NPR-B) | elongation of bone (in words) (normal mice)
CNP6-22: peptide consisting of only the ring structure (amino acid Nos. 6 to 22 of SEQ ID NO: 1) (CFGLKLDRIGSMSGLGC; disulfide 1-17 (inferred)) | almost the same NPR-B agonist activity as that of hCNP-22 | –
CNP-22: human-derived CNP-22 consisting of 22 amino acids, GLSKGCFGLK LDRIGSMSGL GC (GLSKGCFGLKLDRIGSMSGLGC) | – | promoted
